Positions count from the first letter of the chain named.
Key:
[1] = target: T1, recombinant human His-tagged TLR3 extracellular domain protein (human, UniProt O15455 24-704); test: SPR (Biacore T100), bivalent affinity, TLR3-His immobilized, pH 5.6; pH 5.6
T1 construct: Bought protein; also called TLR3-His; recombinant human TLR3; not shown: His tag

[2] = target: T1, recombinant human His-tagged TLR3 …; test: SPR (Biacore T100), bivalent affinity, TLR3-His immobilized, pH 7.2; pH 7.2
Description: For bivalent affinity measurement, unless indicated otherwise, TLR3-His protein was immobilized on a Sensor Chip CM5 (carboxymethylated dextran layer) by amine coupling. […] The resulting sensorgrams were analysed by global fitting using the appropriate model.
Binding to TLR3 at neutral (pH 7.2) and acid (pH 5.6) conditions, and KD values were calculated.

[3] = target: wild-type human TLR3 ECD-CD32 construct (V5-TLR3-CD32) on HEK293T cells (human); test: flow cytometry, 293T cells expressing TLR3/CD32 solely at the surface, neutral pH
Description: Following two wash cycles, cell MFI was analyzed on a FACS Canto II cytometer.

B1: antibody 11E1 (antibody, V domains shown)
VH: QVQLQQPGAELVRPGASVKLSCKASGYTFTNYWMNWVKQRPGQGLEWIGMIDPSDSETHYNQMFKDKATLTVDKSSSTAYMQLSSLTSEDSAVYYCARGGASSDYYYFDYWGQGTTLTVSSASTK
VL: ETTVTQSPASLSMAIGEKVTIRCITSTDIHDDINWYQQKPGEPPKLLISEGNTLRPGVPSRFSSSGYGTDFVFTIENMLSEDVADYYCLQSDNLPRTFGGGTKLEIKRT
notes: Mouse monoclonal from Balb/c immunization #1; also called clone 11E1
Q: For B1, which Kd [1] is on record?
A: Its Kd is 1 nM.

Q: What about the Kd [2] of the same binder?
A: Its Kd is 0.0875 nM.

Q: What about the EC50 [3] of the same binder?
A: The EC50 was 0.016 µg/mL.

B2: antibody 7G11 (antibody, V domains shown)
VH: EVQLQQYGAELGKPGTSVKLSCKVSGYNITYTYMHWVNQRPGKGLEWIGRIDPANGNTIYGEKFKNKATLTADTSSNTAYMQLSQLKSDDTAIYFCAMGEFDYFDHWGQGVMVTVSS
VL: DIQMTQSPASLSASLGETVSIECLASEDISNDLAWYQQKSGKSPQVLIYAASRLEDGVPSRFSGSGSGTRYSLKISGMQPEDEADYFCQQSYKYPVTFGSGTKLEIK
notes: Rat monoclonal from LOU/c immunization #2; also called clone 7G11
Q: How did the EC50 [3] turn out when B2 was run?
A: The EC50 was 0.021 µg/mL.

B3: antibody 31F6 (antibody, V domains shown)
VH: EVQLQQSGAELGKPGTSVKLSCKVSGYNIRYTYMHWVNQRPGKGLEWIGRIDPANGDSIYGEDFKTKATLTADTSSNTAYMQLSQLKSDDTAIYFCAMGEFDYFDYWGQGVMVTVSSASTK
VL: B2 VL with A9P, D28G, K39R, V46L, E55Q, S91N, V96L
notes: Rat monoclonal from LOU/c immunization #2; also called clone 31F6
Q: B3 was tested. Which EC50 [3] did it give?
A: The EC50 was 0.026 µg/mL.

B4: antibody 32C4 (antibody, V domains shown)
VH: EVQLQQYGAELGKPGTSVKLSCKVSGYNIWSTYIYWVNQRPGKGLEWIGRIDPANGNTIYAEKFKTKATLTADTSSNTAYMQLSQLKSDDTAIYFCAMGDHGGYVMDAWGQGASVTVSS
VL: DIQMTQSPGSLSASLGETVSIECLASEDIYSYLAWYQQKPGKSPQLLIYAANRLEDGVPSRFSGSGSGTQYSLKISGMQPEDEGDYFCLQGSEFPYTFGTGTKLELK
notes: Rat monoclonal from LOU/c immunization #2; also called clone 32C4
Q: B4 was tested. Which EC50 [3] did it give?
A: Its EC50 is 0.037 µg/mL.

From US20150140000A1 (INNATE PHARMA, published 2015)
